Data taken from paper PMC5294454, “Enhanced delignification of steam-pretreated poplar by a bacterial laccase” (Scientific Reports, 2017).

Tests used:
[1] = substrate: COc1cccc(OC)c1O; test: purified protein; type: biochemical, Amycolatopsis sp. ATCC 39116; conditions: O2, 50 mM Tris-HCl, pH 8, 30 °C, 0.1 μM sLac
[2] = substrate: CCn1c(=NN=c2sc3cc(S(=O)(=O)O)ccc3n2CC)sc2cc(S(=O)(=O)O)ccc21; test: purified protein; conditions: O2, 50 mM sodium acetate, pH 5, 30 °C, 0.1 μM sLac

B1: sLac (Amycolatopsis sp. ATCC 39116) (protein)
chain: QGTTRRITMYAEKISDELYGYGLAPGGATVPGPVLEMWEGDTLEIDLVNTTDRVLSLHPHGVDYDVNSDGTLMNGSAVMPGQTRRYTWRSHVGYRRADGSWAEGTAGYWHYHDHAMGTEHGTEGVLKGLYGALVVRRQGDLLPKRQFTVVFNDMMINNRAHHDAPTFEANLGERVEWIAIGHGSNFHTFHLHGHRWLDNRTGMRTSEYDPSPLIDIKDLNPGVSFGFQVIAGEGVGPGMWMYHCHVQNHSDMGMAGMFLVRNADGTMPAGVHEH
notes: residues 6-279, putative N-terminal TAT signal removed, TEV-cleavable N-terminal poly-His tag (cleavage not mentioned), pET15a(+), E. coli Rosetta BL21(DE3)pLysS; forward primer […] encodes MQGTTRRI; reverse primer encodes C-terminal ...VHEH
B1 gave a Km [1] of 3000 ± 100 µM, a kcat [1] of 0.5 ± 0.07 s⁻¹ and a Km [2] of 500 ± 40 µM. It also gave a kcat [2] of 7 ± 0.3 s⁻¹.
